From patent publication US20180142016A1

Biological target: human ROR1 extracellular domain (ECD) protein (human) (UniProt Q01973)
Assay: ForteBio Octet; pseudo association rate of Wnt5a binding to ROR1 in the presence of the negative control antibody, not a rate of the antibody itself

Sequence of human ROR1 extracellular domain (ECD) protein (human) (Q01973 30-406 limits assumed): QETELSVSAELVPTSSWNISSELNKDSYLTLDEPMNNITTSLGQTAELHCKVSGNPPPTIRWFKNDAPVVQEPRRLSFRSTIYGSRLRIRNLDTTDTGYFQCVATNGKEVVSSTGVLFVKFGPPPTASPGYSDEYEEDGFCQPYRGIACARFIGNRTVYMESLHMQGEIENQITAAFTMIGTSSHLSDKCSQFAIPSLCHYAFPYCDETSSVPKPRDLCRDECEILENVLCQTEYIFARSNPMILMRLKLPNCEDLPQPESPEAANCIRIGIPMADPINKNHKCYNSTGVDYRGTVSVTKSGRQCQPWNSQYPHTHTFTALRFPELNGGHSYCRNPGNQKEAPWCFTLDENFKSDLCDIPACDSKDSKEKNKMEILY

Pesudo ka: 21000 M⁻¹ s⁻¹
Substance: mAb Control (antibody)
